Assay [1] addresses MTCL1 CC1 fragment purified from E. coli (mouse). As to the kind of experiment: cross-linking; purified CC1 fragment (0.52 mg/ml) in PBS, 30 min at 25°C with DST (0.1, 0.3 and 0.9 mg/ml); stopped with 50 mM Tris-HCl pH 7.5.
Assay [2] has the same target. Briefly: SDS-PAGE without heat pretreatment; purified tag-free CC1 fragment in SDS sample buffer with 2% SDS, with or without heat treatment (100°C, 10 min); CBB staining.

The stoichiometry N is the number of molecules, sites or subunits per partner or assembly. Turning to “MTCL1 CC1 fragment purified from E. coli (domain or fragment)”, the stoichiometry N in assay [1] and in assay [2] was 2 throughout.

Source of the values: article PMC5546597.
